In article PMC3519889:

Assays:
[1] = test system: NarP(D57N) (NarP#) (Shewanella oneidensis); assay: EMSA; conditions: no binding up to 2 uM, 100 mM Tris/HCl pH 7.4, 20 mM KCl, 10 mM MgCl2, 2 mM DTT, 10% glycerol, 15 C, 60 min, ~2 nM probe, 2 ug poly(dI·dC), 4.8% native PAGE
[2] = test system: NarP (SO3982), phosphorylated (Shewanella oneidensis); assay: EMSA; conditions: 100 mM Tris/HCl pH 7.4, 20 mM KCl, 10 mM MgCl2, 2 mM DTT, 10% glycerol, 15 C, 60 min, ~2 nM probe, 2 ug poly(dI·dC); 4.8% native PAGE

## nrfA promoter fragment
[1]; not phosphorylation-treated
  binding: > 2 µM
[1]; treated with NarQ51-585 and ATP
  binding: > 2 µM
[2]
  binding: < 0.25 µM
